B1: Far upstream element-binding protein 2 (Homo sapiens), Q92945 (parent)
chain: MSDYSTGGPPPGPPPPAGGGGGAGGAGGGPPPGPPGAGDRGGGGPGGGGPGGGSAGGPSQPPGGGGPGIRKDAFADAVQRARQIAAKIGGDAATTVNNSTPDFGFGGQKRQLEDGDQPESKKLASQGDSISSQLGPIHPPPRTSMTEEYRVPDGMVGLIIGRGGEQINKIQQDSGCKVQISPDSGGLPERSVSLTGAPESVQKAKMMLDDIVSRGRGGPPGQFHDNANGGQNGTVQEIMIPAGKAGLVIGKGGETIKQLQERAGVKMILIQDGSQNTNVDKPLRIIGDPYKVQQACEMVMDILRERDQGGFGDRNEYGSRIGGGIDVPVPRHSVGVVIGRSGEMIKKIQNDAGVRIQFKQDDGTGPEKIAHIMGPPDRCEHAARIINDLLQSLRSGPPGPPGGPGMPPGGRGRGRGQGNWGPPGGEMTFSIPTHKCGLVIGRGGENVKAINQQTGAFVEISRQLPPNGDPNFKLFIIRGSPQQIDHAKQLIEEKIEGPLCPVGPGPGGPGPAGPMGPFNPGPFNQGPPGAPPHAGGPPPHQYPPQGWGNTYPQWQPPAPHDPSKAAAAAADPNAAWAAYYSHYYQQPPGPVPGPAPAPAAPPAQGEPPQPPPTGQSDYTKAWEEYYKKIGQQPQQPGAPPQQDYTKAWEEYYKKQAQVATGGGPGAPPGSQPDYSAAWAEYYRQQAAYYGQTPGPGGPQPPPTQQGQQQAQ

Variants of: B1
Details: with akt1_human AKT1, P31749
Sequence of akt1_human AKT1, P31749 (P31749 whole entry): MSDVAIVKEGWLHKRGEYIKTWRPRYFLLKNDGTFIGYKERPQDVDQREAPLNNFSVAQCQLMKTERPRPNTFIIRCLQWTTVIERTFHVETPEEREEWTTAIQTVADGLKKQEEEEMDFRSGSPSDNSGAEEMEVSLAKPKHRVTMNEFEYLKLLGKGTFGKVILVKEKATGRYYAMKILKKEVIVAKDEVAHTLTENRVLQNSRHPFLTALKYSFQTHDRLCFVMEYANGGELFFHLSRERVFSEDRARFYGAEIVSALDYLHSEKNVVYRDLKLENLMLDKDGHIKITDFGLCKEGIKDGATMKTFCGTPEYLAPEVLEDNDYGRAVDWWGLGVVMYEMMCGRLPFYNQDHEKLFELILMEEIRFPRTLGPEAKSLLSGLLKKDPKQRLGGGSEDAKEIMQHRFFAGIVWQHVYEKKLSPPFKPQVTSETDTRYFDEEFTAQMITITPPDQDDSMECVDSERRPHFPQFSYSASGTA
For S193A, the “effect of a mutation on the interaction” value was “disrupting interaction”.
